One block for each binder: values may come before it. *: point of attachment. fluorescein = fluorescein label on the N-terminus; Farnesyl = CC(C)=CCC/C(C)=C/CC/C(C)=C/C*; FAM = fluorescein
Legend:
Conditions in all cases: both partners purified
[1] = target: T1, PDE6D (phosphodiesterase 6 delta), wild type, polyhistidine tag removed (UniProt O43924 1-150); test: fluorescence polarisation; fluorescein-labeled KRAS S3I1 peptide at 5 nM, PDE6D 0-512 nM in twofold dilutions; 20 mM Tris pH 7.5, 150 mM NaCl, 2 mM DTT; quadratic fit in GraFit
T1 construct: Cloned into pRSF-Duet and pBDDB-SPR3; also called PDE6D WT; WT PDE6D; source: E. coli BL21 DE3, purified (HisTrap, TEV protease, reverse HisTrap, Superdex S75)

PDE6D M20K, untagged = target: T2, PDE6D M20K, untagged (UniProt O43924 1-150, M20K); test: as above
T2 construct: PDE6D with M20K; Printed as 'untagged PDE6D.M20K' in the pulldown and release assay; also called attenuated PDE6D

[2] = target: T1, PDE6D (phosphodiesterase 6 delta), wild …; test: fluorescence polarisation; fluorescein-…(OMe)-Far at 500 nM, PDE6D 20 to 0.156 μM in twofold dilutions, without or with compound at 500 μM; 20 mM Tris pH 7.5, 150 mM NaCl, 2 mM DTT, 5% DMSO

Kd [1]: 0.05 nM | Kd (PDE6D M20K, untagged): 2.62 ± 1.7 nM
B1: KRAS S3I1 peptide, fluorescein-DGKKKKKKSSTIC(OMe)-farnesyl (peptide)
peptide: fluorescein-DGKKKKKKSSTIC(Farnesyl)-OMe
notes: also called KRAS S3I1 variant; source: synthetic peptide (JPT Innovative Peptide Solutions)

binding result [2]: binds
B2: fluorescein-labeled KRAS HVR peptide, FAM-KKKKKKSKTKC(OMe)-Far (peptide)
peptide: {FAM}-KKKKKKSKTKC(Farnesyl)-OMe
notes: wild-type KRAS (KRAS4B) HVR peptide ending at the farnesylated C185; also called KRAS WT peptide

Reference: article PMC8842248 (Journal of Medicinal Chemistry, 2022)
